Like-named read-outs stand apart in the source and are kept apart here.
Columns and labels:
SEC [1] = molecular target: the molecule itself; experiment: SEC
SEC [2] = molecular target: the molecule itself; experiment: SEC; remark: listed apart in the source

B1: mouse SIINFEKL‐STINGΔTM (other, chicken | mouse)
chain: GLEQLESIINFEKLTEWTSSLTPAEVSAVCEEKKLNVAHGLAWSYYIGYLRLILPGLQARIRMFNQLHNNMLSGAGSRRLYILFPLDCGVPDNLSVVDPNIRFRDMLPQQNIDRAGIKNRVYSNSVYEILENGQPAGVCILEYATPLQTLFAMSQDAKAGFSREDRLEQAKLFCRTLEEILEDVPESRNNCRLIVYQEPTDGNSFSLSQEVLRHIRQEEKEEVTMNAPMTSVAPPPSVLSQEPRLLISGMDQPLPLRTDLI
SEC [1]
  stoichiometry N: 2
SEC [2]
  stoichiometry N: 4

— article PMC11117022 (Advanced Healthcare Materials, 2022)
